From patent publication US20060183119A1, “Method for determining predisposition to a physiological reaction in a patient” (UNIVERSITE LAVAL, priority 2002, published 2006) come the findings set out here.

One series deals with T1, human UGT1A9*2 (Homo sapiens, UniProt O60656, C3Y).
T1 sequence (O60656 26-530): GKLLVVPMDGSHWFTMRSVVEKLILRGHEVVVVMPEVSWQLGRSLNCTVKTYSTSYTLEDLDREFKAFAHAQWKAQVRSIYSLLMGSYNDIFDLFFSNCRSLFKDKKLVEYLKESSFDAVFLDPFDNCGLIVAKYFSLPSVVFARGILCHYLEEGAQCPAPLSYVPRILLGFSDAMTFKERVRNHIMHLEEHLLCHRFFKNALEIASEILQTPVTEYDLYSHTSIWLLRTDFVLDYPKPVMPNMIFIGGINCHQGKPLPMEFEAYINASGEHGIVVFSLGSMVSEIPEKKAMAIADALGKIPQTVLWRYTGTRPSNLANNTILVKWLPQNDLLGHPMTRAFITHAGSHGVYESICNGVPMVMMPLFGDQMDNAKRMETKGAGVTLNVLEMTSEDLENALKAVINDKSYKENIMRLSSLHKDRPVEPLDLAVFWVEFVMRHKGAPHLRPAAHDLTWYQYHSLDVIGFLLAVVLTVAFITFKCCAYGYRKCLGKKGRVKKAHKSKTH
In words: Glucuronidation by microsomes of HEK-293 cells stably expressing UGT1A9*2. The conditions noted are these: 5 μM and 200 μM of flavopiridol. How it is done:
(§1) Microsomal fractions from HEK-293 cells stably expressing human UGT1A9*1, UGT1A9*2 and UGT1A9*3 were used in enzymatic assays. Reactions (100 μl volume) contained 50 mM Tris-HCl, pH 7.3, 10 mM MgCl2, 100 μg/mL phosphatidylcholine, 1 mM UDP-glucuronic acid, 40 to 60 μg of membrane protein. […] Human liver microsome were incubated in the same condition for control. Reaction was stopped by the addition of 200 μL MeOH+1% HCl 2N, followed by centrifugation at 14000 rpm for 10 minutes. Supernatant was filtered through a 0.22 μm filter and 100 μL of water was added. For SN-38 and SN-38-glucuronide detection, 10 μL samples were injected on a liquid chromatographic system coupled to a fluorescence detector. Time-course experiments were realized to determine the linearity of the glucuronidation reaction.
(§2) A liquid chromatographic method was developed to quantify SN-38 glucuronidation of UGT cell line-derived microsomes and human liver microsomes. Samples were analyzed using high performance liquid chromatography (Alliance 2695, Waters, Milford, Mass.). […] At a constant flow rate (0.7 ml/min), a linear gradient from 20 to 65% B was run over 3 min, held 0.8 min and a second gradient until 95% of B was run over 2 min and then re-equilibrated to 20% B over 2 min. The effluent from the HPLC system (Alliance 2695) was connected directly to a fluorescence detector (Waters, Milford, Mass.) using an excitation wavelength of […] and an emission of 460 nm. […] Determination of the glucuronidation rates obtained with other substrates was performed as currently known in the art.
(§3) Microsomal fractions from HEK293 (40 to 60 μg) were added to a reaction mixture (100 μL) containing 50 mM Tris-HCl, pH 7.3, 10 mM MgCl2, 100 μg/mL phosphatidylcholine and 2 mM UDP-glucuronic acid. […] Commercially available human liver microsomes (Human Cell Culture Center Inc., Laurel, Md.) were incubated in the same conditions for all experiments. Time-course experiments were performed to determine the linearity of the glucuronidation reaction. For the determination of Vmax and Km. HEK293 cells stably expressing UGT1A9 enzymes were incubated in the presence of various concentrations of SN-38 ranging from 0.1 to 200 μM and incubated for 30 min as described above whereas UGT1A7 membranes preparations were incubated for 3 hours. […] Reactions with SN-38 were stopped by the addition of 200 μL MeOH+1% HCl 2N, followed by centrifugation at 14000×g for 10 minutes. The supernatants were filtered through a 0.22 μm membrane and 100 μL of water was added to the filtrate. For the detection of SN-38 and its glucuronide (SN-38G), 10 μL samples were injected in a liquid chromatographic system (HPLC) coupled to fluorescence detector as described below.
(§4) A HPLC method was developed to quantify the rates of SN-38 glucuronidation from the various microsomal fractions under study. The HPLC system used was an Alliance 2695 (Waters, Milford, Mass.) equipped with a 50×3.2 mm Colombus C18 column (Phenomenex, Torrance, Calif.). […] Then a second gradient ranging from 65% to 95% solvent B was generated during the following 2 min. Finally, the column was re-equilibrated to 20% solvent B for 2 min. The column was connected to a fluorescence detector model 474 (Waters, Milford, Mass.) and the molecules were excited at a wavelength of 370 nm and an emission of 425 nm.

The next series has as its target T2, human UGT1A9*3 (Homo sapiens, UniProt O60656, M33T).
T2 sequence (O60656 26-530 M33T): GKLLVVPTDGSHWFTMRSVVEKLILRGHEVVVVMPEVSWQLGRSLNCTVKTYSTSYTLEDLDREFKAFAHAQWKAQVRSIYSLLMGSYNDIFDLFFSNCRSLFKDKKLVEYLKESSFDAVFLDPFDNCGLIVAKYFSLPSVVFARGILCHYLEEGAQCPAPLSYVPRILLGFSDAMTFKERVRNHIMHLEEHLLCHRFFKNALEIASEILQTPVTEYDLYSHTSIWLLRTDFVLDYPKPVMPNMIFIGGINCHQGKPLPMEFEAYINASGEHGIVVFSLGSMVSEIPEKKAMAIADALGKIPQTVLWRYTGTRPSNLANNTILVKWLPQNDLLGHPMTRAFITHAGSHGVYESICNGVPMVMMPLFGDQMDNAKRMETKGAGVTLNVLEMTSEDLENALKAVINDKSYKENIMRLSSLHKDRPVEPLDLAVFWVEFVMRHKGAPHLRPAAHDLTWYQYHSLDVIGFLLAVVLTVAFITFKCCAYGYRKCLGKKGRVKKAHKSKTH
In words: Glucuronidation by microsomes of HEK-293 cells stably expressing UGT1A9*3. How it is done:
as §1, §2, §3, §4

Series [1] concerns COc1c(C)c2c(c(O)c1C/C=C(\C)CCC(=O)O)C(=O)OC2. In words: cells, lysate or membranes named. The conditions noted are these: other: MPA glucuronidation; pH 7.3; 37.0 °C.
Substrate in series [2]: COc1c(C)c2c(c(O)c1C/C=C(\C)CCC(=O)O)C(=O)OC2
In words: cells, lysate or membranes named. The conditions noted are these: other: MPA glucuronidation; pH 7.3; 37.0 °C. This is another data set of the same source.

Regarding `CN1CC[C@H](c2c(O)cc(O)c3c(=O)cc(-c4ccccc4Cl)oc23)[C@H](O)C1` [Flavopiridol, flavopiridol], the “formation of flavopiridol-G compared to the UGT1A9*1 allele” value is given as “not statistically different” on human UGT1A9*2; “not statistically different” at human UGT1A9*3 (5 μM and 200 μM of flavopiridol). Turning to `COc1c(C)c2c(c(O)c1C/C=C(\C)CCC(=O)O)C(=O)OC2` [MPA, mycophenolic acid], the “effect of codon 33 variation on affinity of the protein for the substrate (in words)” value on human UGT1A9*3 (versus UGT1A9*1) is “dramatically reduced”. As usually defined, the Km is the concentration of substrate that gives half-maximal velocity. As a reminder, the Vmax is the top rate of the reaction or transport when substrate is in excess. Regarding human UGT1A9*2 (Homo sapiens; C3Y), in series [1], the Km was determined as 303 µM and the Vmax stood at 0.0084 µmol/min/mg.

B1: human UGT1A9*1 (Homo sapiens) (protein)
chain: GKLLVVPMDGSHWFTMRSVVEKLILRGHEVVVVMPEVSWQLGRSLNCTVKTYSTSYTLEDLDREFKAFAHAQWKAQVRSIYSLLMGSYNDIFDLFFSNCRSLFKDKKLVEYLKESSFDAVFLDPFDNCGLIVAKYFSLPSVVFARGILCHYLEEGAQCPAPLSYVPRILLGFSDAMTFKERVRNHIMHLEEHLLCHRFFKNALEIASEILQTPVTEYDLYSHTSIWLLRTDFVLDYPKPVMPNMIFIGGINCHQGKPLPMEFEAYINASGEHGIVVFSLGSMVSEIPEKKAMAIADALGKIPQTVLWRYTGTRPSNLANNTILVKWLPQNDLLGHPMTRAFITHAGSHGVYESICNGVPMVMMPLFGDQMDNAKRMETKGAGVTLNVLEMTSEDLENALKAVINDKSYKENIMRLSSLHKDRPVEPLDLAVFWVEFVMRHKGAPHLRPAAHDLTWYQYHSLDVIGFLLAVVLTVAFITFKCCAYGYRKCLGKKGRVKKAHKSKTH
Regarding B1, in series [2], the Km stood at 495 µM and the Vmax is 0.00941 µmol/min/mg.

B2: human UGT1A9*3 (Homo sapiens; M33T) (protein)
chain: GKLLVVPTDGSHWFTMRSVVEKLILRGHEVVVVMPEVSWQLGRSLNCTVKTYSTSYTLEDLDREFKAFAHAQWKAQVRSIYSLLMGSYNDIFDLFFSNCRSLFKDKKLVEYLKESSFDAVFLDPFDNCGLIVAKYFSLPSVVFARGILCHYLEEGAQCPAPLSYVPRILLGFSDAMTFKERVRNHIMHLEEHLLCHRFFKNALEIASEILQTPVTEYDLYSHTSIWLLRTDFVLDYPKPVMPNMIFIGGINCHQGKPLPMEFEAYINASGEHGIVVFSLGSMVSEIPEKKAMAIADALGKIPQTVLWRYTGTRPSNLANNTILVKWLPQNDLLGHPMTRAFITHAGSHGVYESICNGVPMVMMPLFGDQMDNAKRMETKGAGVTLNVLEMTSEDLENALKAVINDKSYKENIMRLSSLHKDRPVEPLDLAVFWVEFVMRHKGAPHLRPAAHDLTWYQYHSLDVIGFLLAVVLTVAFITFKCCAYGYRKCLGKKGRVKKAHKSKTH
Regarding B2, in series [2], the Km is 3225 µM and the Vmax came to 0.0141 µmol/min/mg.
